Ends that are not written are not given here. * marks the point of attachment. Biotin = O=C1N[C@H]2[C@H](CS[C@H]2CCCCC(=O)*)N1
Tests used:
Experiment in all cases: Luminex peptide beads
[1] = biological target: T1, hGDF8 peptide 8 (52-72), unmodified (human)
T1 peptide: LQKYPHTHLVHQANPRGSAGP
Description: (§1) Fourteen peptides (Table 10) were generated from mature hGDF8 (SEQ ID NO:340). Unmodified peptides, N-terminal biotinylated peptides (N-term), or C-terminal biotinylated peptides (C-term) were used to test and localize antibody binding. Full-length hGDF8, hGDF11 and unmodified peptides were each individually amine-coupled to xMAP® Multi-Analyte COOH Microspheres (or beads). Each of the biotinylated peptides was bound to xMAP® Multi-Analyte LumAvidin Microspheres. Peptide-bound beads suspension were then mixed with an equal volume of blocking buffer (PBS, 1%13SA, 0.05% Tween20, 0.05% Sodium azide) and then distributed into a 96 well filter plate (Millipore, MULTISCREEN® BV). Control and test anti-hGDF8 antibodies, at 2.5 μg/ml were then added to the peptide-bound beads suspension and were allowed to bind to the beads at RT, overnight. The antibody-incubated beads were then washed twice with PBST (PBS+0.05% Tween20) and incubated with either Phycoerythrin (PE) conjugated anti-hFC or PE-conjugated anti-mFC antibodies at RT for 45 min. The beads were washed again and the antibody binding signal to various peptides were detected with either LUMINEX® 100™ or 200™ instruments.

[2] = biological target: T2, hGDF8 peptide 13 (75-105), N-terminal biotinylated (human, N-terminal biotin)
T2 construct: also called peptide 13 N-term
T2 peptide: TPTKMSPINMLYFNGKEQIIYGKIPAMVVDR
Description: as §1

[3] = biological target: T3, hGDF8 peptide 4 (48-65), unmodified (human)
T3 peptide: EFVFLQKYPHTHLVHQAN
Description: as §1

[4] = biological target: T4, hGDF8 peptide 10 (56-72), unmodified (human)
T4 peptide: PHTHLVHQANPRGSAGP
Description: as §1

[5] = biological target: T5, hGDF8 peptide 3 (17-42), unmodified (human)
T5 peptide: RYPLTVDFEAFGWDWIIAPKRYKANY
Description: as §1

[6] = biological target: T6, hGDF8 peptide 14 (91-105), C-terminal biotinylated (human)
T6 construct: also called peptide 14 C-term
T6 peptide: EQIIYGKIPAMVVDR-biotin
Description: as §1

[7] = biological target: T7, hGDF8 peptide 1 (1-14), C-terminal biotinylated (human)
T7 construct: also called peptide 1 C-term
T7 peptide: DFGLDCDEHSTESR-biotin
Description: as §1

[8] = biological target: T8, hGDF8 peptide 11 (65-72), unmodified (human)
T8 peptide: NPRGSAGP
Description: as §1

[9] = biological target: T9, hGDF8 peptide 3 (17-42), N-terminal biotinylated (human, N-terminal biotin)
T9 construct: also called peptide 3 N-term
T9 peptide: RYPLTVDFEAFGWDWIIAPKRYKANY
Description: as §1

[10] = biological target: T10, hGDF8 peptide 14 (91-105), N-terminal biotinylated (human)
T10 construct: also called peptide 14 N-term
T10 peptide: Biotin-EQIIYGKIPAMVVDR
Description: as §1

[11] = biological target: T11, hGDF8 peptide 8 (52-72), C-terminal biotinylated (human, C-terminal biotin)
T11 construct: also called peptide 8 C-term
T11 peptide: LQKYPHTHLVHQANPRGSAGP
Description: as §1

[12] = biological target: T12, hGDF8 peptide 13 (75-105), unmodified (human)
T12 peptide: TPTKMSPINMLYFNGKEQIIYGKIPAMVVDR
Description: as §1

[13] = biological target: T13, hGDF8 peptide 6 (48-72), unmodified (human)
T13 construct: also called peptide fragment 48-72 amino acids
T13 peptide: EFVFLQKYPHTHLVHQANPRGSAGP
Description: as §1

[14] = biological target: T14, hGDF8 peptide 7 (52-65), C-terminal biotinylated (human)
T14 construct: also called peptide 7 C-term
T14 peptide: LQKYPHTHLVHQAN-biotin
Description: as §1

[15] = biological target: T15, hGDF8 peptide 12 (73-90), C-terminal biotinylated (human, cysteine pairing not given here)
T15 construct: also called peptide 12 C-term
T15 peptide: CCTPTKMSPINMLYFNGK-biotin
Description: as §1

[16] = biological target: T16, hGDF8 peptide 6 (48-72), C-terminal biotinylated (human, C-terminal biotin)
T16 construct: also called peptide 6 C-term
T16 peptide: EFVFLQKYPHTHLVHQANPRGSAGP
Description: as §1

[17] = biological target: T17, hGDF8 peptide 12 (73-90), N-terminal biotinylated (human, cysteine pairing not given here)
T17 construct: also called peptide 12 N-term
T17 peptide: Biotin-CCTPTKMSPINMLYFNGK
Description: as §1

[18] = biological target: T18, hGDF8 peptide 2 (1-18), C-terminal biotinylated (human, cysteine pairing not given here)
T18 construct: also called peptide 2 C-term
T18 peptide: DFGLDCDEHSTESRCCRY-biotin
Description: as §1

[19] = biological target: T19, hGDF8 peptide 5 (48-69), C-terminal biotinylated (human, C-terminal biotin)
T19 construct: also called peptide 5 C-term
T19 peptide: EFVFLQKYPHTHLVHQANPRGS
Description: as §1

[20] = biological target: T20, hGDF8 peptide 13 (75-105), C-terminal biotinylated (human, C-terminal biotin)
T20 construct: also called peptide 13 C-term
T20 peptide: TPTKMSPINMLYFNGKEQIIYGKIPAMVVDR
Description: as §1

[21] = biological target: T21, hGDF8 peptide 5 (48-69), unmodified (human)
T21 peptide: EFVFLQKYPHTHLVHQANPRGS
Description: as §1

[22] = biological target: T22, hGDF8 peptide 2 (1-18), N-terminal biotinylated (human, cysteine pairing not given here)
T22 construct: also called peptide 2 N-term
T22 peptide: Biotin-DFGLDCDEHSTESRCCRY
Description: as §1

[23] = biological target: T23, hGDF8 peptide 7 (52-65), unmodified (human)
T23 peptide: LQKYPHTHLVHQAN
Description: as §1

[24] = biological target: T24, hGDF8 peptide 4 (48-65), C-terminal biotinylated (human)
T24 construct: also called peptide 4 C-term
T24 peptide: EFVFLQKYPHTHLVHQAN-biotin
Description: as §1

[25] = biological target: T25, hGDF8 peptide 11 (65-72), N-terminal biotinylated (human)
T25 construct: also called peptide 11 N-term
T25 peptide: Biotin-NPRGSAGP
Description: as §1

[26] = biological target: T26, hGDF8 peptide 2 (1-18), unmodified (human)
T26 peptide: DFGLDCDEHSTESRCCRY
Description: as §1

[27] = biological target: T27, hGDF8 peptide 3 (17-42), C-terminal biotinylated (human, C-terminal biotin)
T27 construct: also called peptide 3 C-term
T27 peptide: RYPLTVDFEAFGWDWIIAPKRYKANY
Description: as §1

[28] = biological target: T28, hGDF8 peptide 1 (1-14), unmodified (human)
T28 peptide: DFGLDCDEHSTESR
Description: as §1

[29] = biological target: T29, hGDF8 peptide 6 (48-72), N-terminal biotinylated (human, N-terminal biotin)
T29 construct: also called peptide 6 N-term
T29 peptide: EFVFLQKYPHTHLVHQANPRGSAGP
Description: as §1

[30] = biological target: T30, hGDF8 peptide 10 (56-72), C-terminal biotinylated (human)
T30 construct: also called peptide 10 C-term
T30 peptide: PHTHLVHQANPRGSAGP-biotin
Description: as §1

[31] = biological target: T31, hGDF8 peptide 1 (1-14), N-terminal biotinylated (human)
T31 construct: also called peptide 1 N-term
T31 peptide: Biotin-DFGLDCDEHSTESR
Description: as §1

[32] = biological target: T32, hGDF8 peptide 9 (56-65), C-terminal biotinylated (human)
T32 construct: also called peptide 9 C-term
T32 peptide: PHTHLVHQAN-biotin
Description: as §1

[33] = biological target: T33, hGDF8 peptide 11 (65-72), C-terminal biotinylated (human)
T33 construct: also called peptide 11 C-term
T33 peptide: NPRGSAGP-biotin
Description: as §1

binding result [1]: no binding (tested: 2.5 µg/ml) | binding result [2]: no binding (tested: 2.5 µg/ml) | binding result [3]: no binding (tested: 2.5 µg/ml) | binding result [4]: no binding (tested: 2.5 µg/ml) | binding result [5]: no binding (tested: 2.5 µg/ml) | binding result [6]: no binding (tested: 2.5 µg/ml) | binding result [7]: no binding (tested: 2.5 µg/ml) | binding result [8]: no binding (tested: 2.5 µg/ml) | binding result [9]: no binding (tested: 2.5 µg/ml) | binding result [10]: no binding (tested: 2.5 µg/ml) | binding result [11]: no binding (tested: 2.5 µg/ml) | binding result [12]: no binding (tested: 2.5 µg/ml) | binding result [13]: no binding (tested: 2.5 µg/ml) | binding result [14]: no binding (tested: 2.5 µg/ml) | binding result [15]: no binding (tested: 2.5 µg/ml) | binding result [16]: no binding (tested: 2.5 µg/ml) | binding result [17]: no binding (tested: 2.5 µg/ml) | binding result [18]: no binding (tested: 2.5 µg/ml) | binding result [19]: no binding (tested: 2.5 µg/ml) | binding result [20]: no binding (tested: 2.5 µg/ml) | binding result [21]: no binding (tested: 2.5 µg/ml) | binding result [22]: no binding (tested: 2.5 µg/ml) | binding result [23]: no binding (tested: 2.5 µg/ml) | binding result [24]: no binding (tested: 2.5 µg/ml) | binding result [25]: no binding (tested: 2.5 µg/ml) | binding result [26]: no binding (tested: 2.5 µg/ml) | binding result [27]: no binding (tested: 2.5 µg/ml) | binding result [28]: no binding (tested: 2.5 µg/ml) | binding result [29]: no binding (tested: 2.5 µg/ml) | binding result [30]: no binding (tested: 2.5 µg/ml) | binding result [31]: no binding (tested: 2.5 µg/ml) | binding result [32]: no binding (tested: 2.5 µg/ml) | binding result [33]: no binding (tested: 2.5 µg/ml)
B1: H4H1657N2 (antibody, V domains shown)
VH: EVQVLESGGDLVQPGGSLRLSCAASGFTFSAYAMTWVRQAPGKGLEWVSAISGSGGSAYYADSVKGRFTISRDNSKNTVYLQMNSLRAEDTAVYYCAKDGAWKMSGLDVWGQGTTVIVSS
VL: DIQMTQSPASLSASVGDRVTITCRASQDISDYLAWYQQKPGKIPRLLIYTTSTLQSGVPSRFRGSGSGTDFTLTISSLQPEDVATYYCQKYDSAPLTFGGGTKVEIK
notes: captured by anti-hFc, so human Fc
